Source: patent publication US20250152729A1 (CANCER RESEARCH TECHNOLOGY, published 2025)
Where two headings read alike, the source gives them in different places.

T1: human SEMA4A expressed on cells (UniProt ID Q9H3S1, isoform 1) (human, UniProt Q9H3S1 33-761)
T1 sequence: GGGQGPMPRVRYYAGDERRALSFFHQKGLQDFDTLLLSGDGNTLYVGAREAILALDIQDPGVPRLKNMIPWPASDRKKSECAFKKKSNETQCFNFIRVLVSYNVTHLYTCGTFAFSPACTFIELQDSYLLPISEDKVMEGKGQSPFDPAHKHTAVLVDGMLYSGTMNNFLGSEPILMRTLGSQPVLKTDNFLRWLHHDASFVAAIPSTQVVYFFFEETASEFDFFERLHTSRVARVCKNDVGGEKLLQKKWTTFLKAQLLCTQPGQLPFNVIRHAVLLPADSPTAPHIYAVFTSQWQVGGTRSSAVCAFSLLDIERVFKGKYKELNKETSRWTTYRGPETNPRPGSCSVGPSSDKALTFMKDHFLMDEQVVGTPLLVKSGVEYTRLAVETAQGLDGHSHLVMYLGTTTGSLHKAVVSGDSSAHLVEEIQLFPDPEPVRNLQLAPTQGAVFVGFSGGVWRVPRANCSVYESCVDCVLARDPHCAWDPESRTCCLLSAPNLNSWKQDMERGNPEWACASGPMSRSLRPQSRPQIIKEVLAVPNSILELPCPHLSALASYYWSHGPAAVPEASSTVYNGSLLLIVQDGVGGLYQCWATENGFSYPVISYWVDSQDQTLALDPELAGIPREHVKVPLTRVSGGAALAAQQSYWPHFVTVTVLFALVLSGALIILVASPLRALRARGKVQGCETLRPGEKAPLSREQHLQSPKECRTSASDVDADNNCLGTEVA

T2: human SEMA4B expressed on expi293 cells (human, UniProt Q9NPR2 44-837)
T2 construct: whole, on cells
T2 sequence (looked up): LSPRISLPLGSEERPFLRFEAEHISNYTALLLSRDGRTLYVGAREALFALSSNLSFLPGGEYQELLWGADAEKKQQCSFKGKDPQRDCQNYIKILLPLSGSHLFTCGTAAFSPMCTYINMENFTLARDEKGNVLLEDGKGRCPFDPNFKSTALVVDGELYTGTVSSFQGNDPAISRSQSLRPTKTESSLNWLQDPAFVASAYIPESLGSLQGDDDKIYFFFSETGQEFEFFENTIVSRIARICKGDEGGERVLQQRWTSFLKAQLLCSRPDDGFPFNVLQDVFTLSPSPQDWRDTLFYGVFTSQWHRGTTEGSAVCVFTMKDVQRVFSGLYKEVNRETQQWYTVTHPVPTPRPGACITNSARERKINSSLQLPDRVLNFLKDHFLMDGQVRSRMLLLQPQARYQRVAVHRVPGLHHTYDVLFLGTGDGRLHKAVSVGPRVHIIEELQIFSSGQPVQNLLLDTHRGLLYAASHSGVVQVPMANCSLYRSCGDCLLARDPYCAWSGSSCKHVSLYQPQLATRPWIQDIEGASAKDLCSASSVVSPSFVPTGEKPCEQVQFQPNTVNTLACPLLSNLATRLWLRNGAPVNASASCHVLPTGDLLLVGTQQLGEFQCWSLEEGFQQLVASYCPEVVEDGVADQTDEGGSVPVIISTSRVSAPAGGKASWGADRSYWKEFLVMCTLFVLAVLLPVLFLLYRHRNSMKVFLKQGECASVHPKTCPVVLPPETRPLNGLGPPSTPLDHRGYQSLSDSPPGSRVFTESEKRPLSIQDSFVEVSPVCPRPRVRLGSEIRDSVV

B1: C0120914 human Alya IgG1 conjugated to McMMAF (antibody, V domains shown)
VH: QVQLQESGPGLVKPSETLSLTCTVSGGSVSSGRYDWSWIRQPPGKGLEWIGHIYYTGITDYNPSLRSRVTISADKPKNQFSLKLNSVTAADTAVYYCARGPFFDPWGQGTMVTVSS
VL: QSVLTQPPSVSVAPGQTASLTCGANNIGSKSVQWYQQKPGQAPVLVVYDGSDRPSGIPDRFSGSSSENTATLTISRVEAGDEADYYCQLWDSVTDRPVFGGGTKVTVL
modifications: McMMAF on the engineered cysteines 239iCys and S442C (EU numbering) of the heavy constant region
notes: Antibody-drug conjugate; human IgG1 Alya constant; also called C0120914-McMMAF
B2: C0120906 human Alya IgG1 conjugated to McMMAF (antibody, V domains shown)
VH: EVQLVQSGPEVKKPGASVKISCKASGYKLNDPGVHGVSWVRQAPGQGLEWMGWISTLNGDTRYAQKFQGRVTMATDSSTSTIYMDLRSLKSDDTALYYCARDDYTAIFDFWGRGTLVTVSS
VL: QSVLTQPPSVSVAPGQTASITCGGSNIGSQSVHWYQQKPGQAPVLVVYDDSDRPSGIPERFSGSKSGNTASLILSRVEAGDEADYYCQVWDSSTDHHVFGTGTKVTVL
modifications: McMMAF on the engineered cysteines 239iCys and S442C (EU numbering) of the heavy constant region
notes: Antibody-drug conjugate; human IgG1 Alya constant; also called C0120906-McMMAF
B3: C0120918 human Alya IgG1 conjugated to McMMAF (antibody, V domains shown)
VH: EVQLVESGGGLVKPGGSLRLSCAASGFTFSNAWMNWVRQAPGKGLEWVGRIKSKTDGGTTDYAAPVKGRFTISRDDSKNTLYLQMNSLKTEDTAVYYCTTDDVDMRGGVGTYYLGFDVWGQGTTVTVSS
VL: SYELTQPPSVSVSPGQTARITCSGDALPKQYAYWYQQKPGQAPVLVIYKDSERPSGIPERFSGSSSGTTVTLTISGVQAEDEADYYCQSADSSGTWVFGGGTKVTVL
modifications: McMMAF on the engineered cysteines 239iCys and S442C (EU numbering) of the heavy constant region
notes: Antibody-drug conjugate; human IgG1 Alya constant; also called C0120918-McMMAF
B4: mouse 5E3 as human Alya IgG1 conjugated to McMMAF (antibody, V domains shown)
VH: QVQLQQPGAELVMPGASVKMSCKASGYTFTDYWMHWVKQRPGQGLEWIGAIDTSDSYTSYNQKFKGKATLTVDESSSTAYMQLSSLTSEDSAVYYCARDYGNFYYYAMDYWGQGTSVTVSS
VL: QAVVTQESALTTSPGETVTLTCRSSTGAVTTSNYANWVQEKPDHLFTGLIGGTNNRAPGVPARFSGSLIGDKAALTITGAQTEDEAIYFCALWYSNHWVFGGGTKLTVL
modifications: McMMAF on the engineered cysteines 239iCys and S442C (EU numbering) of the heavy constant region
notes: Antibody-drug conjugate; human IgG1 Alya constant, drug-to-antibody ratio of four; also called Mouse 5E3-McMMAF
B5: C0120905 human Alya IgG1 conjugated to McMMAF (antibody, V domains shown)
VH: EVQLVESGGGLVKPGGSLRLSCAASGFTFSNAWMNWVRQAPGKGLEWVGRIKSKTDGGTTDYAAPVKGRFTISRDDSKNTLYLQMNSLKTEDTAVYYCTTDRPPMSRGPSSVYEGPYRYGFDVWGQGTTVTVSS
VL: NFMLTQPHSVSESPGKTVTISCTGSGGNIVDNFVQWHQQRPGSAPRTVIYEDDQRPSGVPDRFSASVDSSSNSGTLSISGLKTEDEADYYCQSYDGANRWVFGGGTKLTVL
modifications: McMMAF on the engineered cysteines 239iCys and S442C (EU numbering) of the heavy constant region
notes: Antibody-drug conjugate; human IgG1 Alya constant; also called C0120905-McMMAF
B6: 5Hg1-5Lg1 human Alya IgG1 conjugated to McMMAF (antibody, V domains shown)
VH: QVQLVQSGAEVKKPGASVKVSCKASGYTFTDYWMHWVRQAPGQGLEWMGAIDTSDSYTSYNQKFKGRVTMTRDTSTSTVYMELSSLRSEDTAVYYCARDYGNFYYYAMDYWGQGTLVTVSS
VL: QAVVTQEPSLTVSPGGTVTLTCRSSTGAVTTSNYANWFQQKPGQAPRTLIYGTNNRAPWTPARFSGSLLGGKAALTLSGAQPEDEAEYYCALWYSNHWVFGGGTKLTVL
modifications: McMMAF on the engineered cysteines 239iCys and S442C (EU numbering) of the heavy constant region
notes: Antibody-drug conjugate; human IgG1 Alya constant; also called 5Hg1/5Lg1-McMMAF
B7: 5Hg2-5Lg2 human Alya IgG1 conjugated to McMMAF (antibody, V domains shown)
VH: QVQLVQSGAEVKKPGASVKVSCKASGYTFTDYWMHWVRQAPGQRLEWMGAIDTSDSYTSYNQKFKGRVTITRDTSASTAYMELSSLRSEDTAVYYCARDYGNFYYYAMDYWGQGTLVTVSS
VL: QAVVTQEPSLTVSPGGTVTLTCRSSTGAVTTSNYANWFQQKPGQAPRTLIYGTNNRAPWTPARFSGSLLGGKAALTLLGAQPEDEAEYYCALWYSNHWVFGGGTKLTVL
modifications: McMMAF on the engineered cysteines 239iCys and S442C (EU numbering) of the heavy constant region
notes: Antibody-drug conjugate; human IgG1 Alya constant; also called 5Hg2/5Lg2-McMMAF
B8: C0120903 human Alya IgG1 conjugated to McMMAF (antibody, V domains shown)
VH: EVQLVQSGAEVKKPGSSMKVSCKASGGTFNSYTINWVRQAPGQGLEWVGGFIPIFGTADYAQKFHGRVAITADESMSTAYMELSSLRSEDTAVYYCARAPLGSEPFDYWGQGTMVTVSS
VL: SYVLTQPPSVSVAPGQTARITCGGNNIGSKSVHWYQQKPGQAPVLVVYDDSDRPSGIPERFSGSNSGNTATLTISRVEAGDEADYYCQVWDSSSDHLVFGGGTKLTVL
modifications: McMMAF on the engineered cysteines 239iCys and S442C (EU numbering) of the heavy constant region
notes: Antibody-drug conjugate; human IgG1 Alya constant; also called C0120903-McMMAF
B9: C0120917 human Alya IgG1 conjugated to McMMAF (antibody, V domains shown)
VH: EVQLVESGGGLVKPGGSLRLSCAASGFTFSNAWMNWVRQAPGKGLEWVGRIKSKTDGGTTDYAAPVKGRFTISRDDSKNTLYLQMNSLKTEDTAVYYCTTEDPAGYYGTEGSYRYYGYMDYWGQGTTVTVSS
VL: NFMLTQPHSVSESPGKTVTISCTASGDTLDNKYVNWYQVRPGSAPATLIFHYEERDSGVPDRFSGSFDASSNSASLTISGLQTADEADYFCQSYDSKRDNLVVFGGGTKVTVL
modifications: McMMAF on the engineered cysteines 239iCys and S442C (EU numbering) of the heavy constant region
notes: Antibody-drug conjugate; human IgG1 Alya constant; also called C0120917-McMMAF

Key:
[1] = molecular target: T1, human SEMA4A expressed on cells …; experiment: cell-based or functional assay
[2] = molecular target: T1, human SEMA4A expressed on cells …; experiment: flow cytometry on NCI-H929 cells endogenously expressing human SEMA4A, 10-point titration
Method: Binding of SEMA4A specific IgGs to membrane-bound SEMA4A was evaluated using flow cytometry in NCI-H929 cells that endogenously express human SEMA4A. Binding assays were performed by incubating the anti-SEMA4A antibodies with 200,000 cells for 3 hours at 4° C. followed by two washes with PBS, 1% (w/v) BSA (FACS buffer). A range of antibody concentrations were evaluated using a 10-point, 3-fold dilution series. Cells were then incubated with Alexa Fluor 647 conjugated AffiniPure Fab Fragment Goat Anti-Human IgG (H+L) (Jackson Immunoresearch Europe Limited, Ely, Cambridgeshire) diluted 1:100, at 4° C. for 1 hour, followed by two washes in FACS buffer. Cells were then stained with LIVE/DEAD™ Fixable Violet Dead Cell Stain (Life Technologies, L34955) for 30 minutes at 4° C., followed by two washes in FACS buffer. Cells were then fixed using BD Cell Fix (BD Biosciences, 340181). Fluorescence of live, single cells was measured using a Novocyte™ 3000 flow cytometer and Novoexpress software (Acea Biosciences, Inc, San Diego, CA). Data were analysed using FlowJo software (FlowJo, LLC, Ashland, OR). Mean fluorescence intensity values were plotted against antibody conjugate concentrations and KD values determined using Prism software (GraphPad Software Inc, La Jolla, CA).

[3] = molecular target: T1, human SEMA4A expressed on cells …; experiment: cell-based or functional assay; remark: listed apart in the source
[4] = molecular target: T2, human SEMA4B expressed on expi293 cells; experiment: Mirrorball direct binding, dilution series on expi293 cells transiently transfected with human SEMA4B, anti-human Alexa Fluor 647
Method: To determine the specificity profile of each purified human Alya IgG1 conjugated to McMMAF, a dilution series was tested for binding to human SEMA4A, human SEMA4B and mock transfected cells (transient transfections set up in expi 293 cells.) The three assays employed methods described in section 2.3, using the appropriate cells and substituting the un-purified scFv periplasmic preparation with the human Alya IgG1 conjugated to McMMAF. Data was analysed as Count x median mean intensity (x FLU).

[5] = molecular target: T1, human SEMA4A expressed on cells …; experiment: cell-based or functional assay; remark: listed apart in the source

Binder | EC50 (nM), Fab-pHast internalisation into NCI-H929 [1] [nM] | Fold-Change at 6 hours (10 nM), Fab-pHast internalisation [1] [fold] | Kd [2] [nM] | Average MM1.S IC50 [pM], cell kill [3] [pM] | Average NCI-H929 IC50 [pM], cell kill [3] [pM] | binding result [4] | Average KARPAS 25 IC50 [pM], cell kill [5] [pM] | Average MM1.S IC50 [pM], cell kill [5] [pM] | Average NCI-H929 IC50 [pM], cell kill [5] [pM]
B1 | 3.29 | 112 | 9.04 | 1.1 | 2.5 | no binding (tested: log (M) -8 (1e-8 M)) |  |  | 
B2 | 4.1 | 116 | 9.67 | 4.7 | 3 | no binding (tested: log (M) -8 (1e-8 M)) |  |  | 
B3 | 3.62 | 79 | 1.6 | 13.2 | 55.8 | no binding (tested: log (M) -8 (1e-8 M)) |  |  | 
B4 | 0.25 | 160 | 3.18 | 5.8 | 5.1 | no binding (tested: log (M) -8 (1e-8 M)) | 126 | 5.95 | 7.53
B5 | 3.72 | 91 | 34.3 | 63.5 | 90.8 | no binding (tested: log (M) -8 (1e-8 M)) |  |  | 
B6 | 0.54 | 121 | 1.46 |  |  | no binding (tested: log (M) -8 (1e-8 M)) | 625 | 35.8 | 100
B7 | 0.59 | 103 | 2.46 |  |  | no binding (tested: log (M) -8 (1e-8 M)) | 181 | 10.7 | 34.3
B8 | 0.98 | 118 | 9.88 | 8.8 | 7.1 | no binding (tested: log (M) -8 (1e-8 M)) |  |  | 
B9 | 8.29 | 53 | 40.5 | 10.9 | 18.1 | no binding (tested: log (M) -8 (1e-8 M)) |  |  | 
